Test results from article PMC12171399.

Key:
[1] = biological target: secreted form of VEGF-A-HisTag expressed in Expi293 cells (mouse) (UniProt Q00731); assay: SDS-PAGE; VEGF-A-HisTag from Expi293 culture media, purified on a heparin affinity column
[2] = biological target: VEGF-A-HisTag refolded from inclusion bodies of BL21(DE3) (mouse); assay: SDS-PAGE under reducing and non-reducing conditions; purified protein; disulfide-linked homodimer told from monomer by comparing migration under reducing or non-reducing conditions; 5%-20% gradient gel; refolded samples after cation-exchange chromatography
[3] = biological target: non-tagged mature mouse VEGF-A (188 amino acids form), refolded from TAPS-VEGF-A (mouse); assay: as above

## secreted form of VEGF-A-HisTag expressed in Expi293 cells (from UniProt Q00731 1-392) (ligand)
[1]
  stoichiometry N: 2

## VEGF-A-HisTag refolded from inclusion bodies of BL21(DE3) (ligand)
[2]
  stoichiometry N: 2

## non-tagged mature mouse VEGF-A (188 amino acids form), refolded from TAPS-VEGF-A (ligand)
[3]
  stoichiometry N: 2
